Positions count from the first letter of the chain named. Names may count otherwise. “And” between values parts separate entries of the source, which are not always exact repeats. Equal values may be shown once.
B1: caninized anti-canine IL31 clone M14 antibody with YYY variant canine IgG-B Fc polypeptide (antibody)
heavy: EVQLVESGPSLVKPGGSLRLTCSVTGDSITSGYWNWIRKFPGNKLEYMGYISYSGITDYNPSLKSRITISRDTSKNQYYLQLNSVTTEDTATYYCARYGNYGYAMDYWGQGTLVTVSSASTTAPSVFPLAPSCGSTSGSTVALACLVSGYFPEPVTVSWNSGSLTSGVHTFPSVLQSSGLYSLSSMVTVPSSRWPSETFTCNVAHPASKTKVDKPVPKRENGRVPRPPDCPKCPAPEMLGGPSVFIFPPKPKDTLYIARTPEVTCVVVDLDPEDPEVQISWFVDGKQMQTAKTQPREEQFNGTYRVVSVLPIGHYDWLKGKQFTCKVNNKALPSPIERTISKARGQAHQPSVYVLPPSREELSKNTVSLTCLIKDFFPPDIDVEWQSNGQQEPESKYRTTPPQLDEDGSYFLYSKLSVDKSRWQRGDTFICAVMHEALHYHYTQESLSHSPGK
light: DIVMTQSPASLSVSLGQRATISCRASESVDTYGNSFMHWYQQKPGQSPKLLIYRASNLESGIPARFGGSGSGTDFTLTIDPVQADDVATYYCQQSYEDPWTFGGGTKLEIKRNDAQPAVYLFQPSPDQLHTGSASVVCLLNSFYPKDINVKWKVDGVIQDTGIQESVTEQDKDSTYSLSSTLTMSSTEYLSHELYSCEITHKSLPSTLIKSFQRSECQRVD
B2: YTE variant canine IgG-B Fc polypeptide (Leu24Tyr, Ala26Thr, Thr28Glu) (protein, not shown: small tags and cut ends)
chain: CPAPEMLGGPSVFIFPPKPKDTLYITREPEVTCVVVDLDPEDPEVQISWFVDGKQMQTAKTQPREEQFNGTYRVVSVLPIGHQDWLKGKQFTCKVNNKALPSPIERTISKARGQAHQPSVYVLPPSREELSKNTVSLTCLIKDFFPPDIDVEWQSNGQQEPESKYRTTPPQLDEDGSYFLYSKLSVDKSRWQRGDTFICAVMHEALHNHYTQESLSHSPGK
B3: wild-type canine IgG-B Fc polypeptide (protein, not shown: small tags and cut ends)
chain: B2 chain with Y24L, T26A, E28T
B4: variant canine IgG-B Fc polypeptide Y0R (Leu24Tyr, Asn208Arg) (protein, not shown: small tags and cut ends)
chain: B2 chain with T26A, E28T, N208R
B5: variant canine IgG-B Fc polypeptide Y0F (Leu24Tyr, Asn208Phe) (protein, not shown: small tags and cut ends)
chain: B2 chain with T26A, E28T, N208F
B6: variant canine IgG-B Fc polypeptide Y0Y (Leu24Tyr, Asn208Tyr) (protein, not shown: small tags and cut ends)
chain: B2 chain with T26A, E28T, N208Y
B7: variant canine IgG-B Fc polypeptide Y0H (Leu24Tyr, Asn208His) (protein, not shown: small tags and cut ends)
chain: B2 chain with T26A, E28T, N208H
B8: variant canine IgG-B Fc polypeptide Y0W (Leu24Tyr, Asn208Trp) (protein, not shown: small tags and cut ends)
chain: B2 chain with T26A, E28T, N208W
B9: variant canine IgG-B Fc polypeptide 0YR (Gln83Tyr, Asn208Arg) (protein, not shown: small tags and cut ends)
chain: B2 chain with Y24L, T26A, E28T, Q83Y, N208R
B10: variant canine IgG-B Fc polypeptide 0YF (Gln83Tyr, Asn208Phe) (protein, not shown: small tags and cut ends)
chain: B2 chain with Y24L, T26A, E28T, Q83Y, N208F
B11: variant canine IgG-B Fc polypeptide 0YY (Gln83Tyr, Asn208Tyr) (protein, not shown: small tags and cut ends)
chain: B2 chain with Y24L, T26A, E28T, Q83Y, N208Y
B12: variant canine IgG-B Fc polypeptide 0YH (Gln83Tyr, Asn208His) (protein, not shown: small tags and cut ends)
chain: B2 chain with Y24L, T26A, E28T, Q83Y, N208H
B13: variant canine IgG-B Fc polypeptide 0YW (Gln83Tyr, Asn208Trp) (protein, not shown: small tags and cut ends)
chain: B2 chain with Y24L, T26A, E28T, Q83Y, N208W
B14: variant canine IgG-B Fc polypeptide YYR (Leu24Tyr, Gln83Tyr, Asn208Arg) (protein, not shown: small tags and cut ends)
chain: B2 chain with T26A, E28T, Q83Y, N208R
B15: variant canine IgG-B Fc polypeptide YYF (Leu24Tyr, Gln83Tyr, Asn208Phe) (protein, not shown: small tags and cut ends)
chain: B2 chain with T26A, E28T, Q83Y, N208F
B16: variant canine IgG-B Fc polypeptide YYY (Leu24Tyr, Gln83Tyr, Asn208Tyr) (protein, not shown: small tags and cut ends)
chain: B2 chain with T26A, E28T, Q83Y, N208Y
B17: variant canine IgG-B Fc polypeptide YYH (Leu24Tyr, Gln83Tyr, Asn208His) (protein, not shown: small tags and cut ends)
chain: B2 chain with T26A, E28T, Q83Y, N208H
B18: variant canine IgG-B Fc polypeptide YYW (Leu24Tyr, Gln83Tyr, Asn208Trp) (protein, not shown: small tags and cut ends)
chain: B2 chain with T26A, E28T, Q83Y, N208W
B19: caninized anti-canine IL31 clone M14 antibody with wild-type canine IgG-B Fc polypeptide (antibody)
heavy: B1 heavy with Y256L, Y315Q, Y440N
light: B1 light
B20: caninized anti-canine IL31 clone M14 antibody with YTE variant canine IgG-B Fc polypeptide (antibody)
heavy: B1 heavy with A258T, T260E, Y315Q, Y440N
light: B1 light
B21: variant canine IgG-B Fc polypeptide L(24)M (protein, not shown: small tags and cut ends)
chain: B2 chain with Y24M, T26A, E28T
B22: variant canine IgG-B Fc polypeptide L(24)Y (protein, not shown: small tags and cut ends)
chain: B2 chain with T26A, E28T
B23: variant canine IgG-B Fc polypeptide L(24)F (protein, not shown: small tags and cut ends)
chain: B2 chain with Y24F, T26A, E28T
B24: variant canine IgG-B Fc polypeptide L(24)S (protein, not shown: small tags and cut ends)
chain: B2 chain with Y24S, T26A, E28T
B25: caninized anti-canine IL31 clone M14 antibody with Y0Y variant canine IgG-B Fc polypeptide (antibody)
heavy: B1 heavy with Y315Q
light: B1 light

Biological target: canine FcRn/B2M protein complex (canine FcRn ECD with C-terminal poly-His tag and canine Beta-2-Microglobulin) (canine)
Sequence (chain, as listed by the source limits assumed, form in doubt, chain 1 of 2): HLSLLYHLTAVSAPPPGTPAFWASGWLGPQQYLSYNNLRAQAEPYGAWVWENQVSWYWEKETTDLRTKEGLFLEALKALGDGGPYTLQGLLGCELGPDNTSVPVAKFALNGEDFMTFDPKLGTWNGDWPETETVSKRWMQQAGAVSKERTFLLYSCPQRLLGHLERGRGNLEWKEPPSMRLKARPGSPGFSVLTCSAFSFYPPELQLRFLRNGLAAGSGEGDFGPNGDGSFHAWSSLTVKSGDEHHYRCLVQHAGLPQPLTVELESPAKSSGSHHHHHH
Sequence (b2m, as listed by the source limits assumed, form in doubt, chain 2 of 2): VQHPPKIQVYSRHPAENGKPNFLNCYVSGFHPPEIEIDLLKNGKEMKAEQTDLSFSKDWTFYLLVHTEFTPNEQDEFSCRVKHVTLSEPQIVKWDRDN
Assay: SPR Biacore T200, pH 6.0; biotinylated FcRn/B2M captured on streptavidin, antibody 1.5625-100 nM as analyte, kinetic fit

Question: How did the Kd turn out when B1 was run?
Answer: 3.84 nM

Question: What about the koff of the same binder?
Answer: 0.000869 s⁻¹

Question: What about the kon of the same binder?
Answer: 227000 M⁻¹ s⁻¹

Biological target: canine FcRn/B2M protein complex (canine FcRn ECD with C-terminal poly-His tag and canine Beta-2-Microglobulin) (canine)
Assay: SPR Biacore 8K, pH 6.0, 25 C; Fc captured by SASA tag on BSA chip, FcRn/B2M 400 nM as analyte

Question: With B2 as the binder, how does the Kd read?
Answer: 31 nM

Question: And the koff?
Answer: 0.0205 s⁻¹

Question: And the kon?
Answer: 662000 M⁻¹ s⁻¹

Question: Which Kd does the source give for B3 here?
Answer: 102 nM

Question: And the koff?
Answer: 0.0856 s⁻¹

Question: What about the kon of the same binder?
Answer: 838000 M⁻¹ s⁻¹

Question: B4 was tested. Which Kd did it give?
Answer: 8.64 nM

Question: What about the koff of the same binder?
Answer: 0.00295 s⁻¹

Question: And the kon?
Answer: 341000 M⁻¹ s⁻¹

Question: Which results are given for B5?
Answer: Kd: 0.787 nM; koff: 0.000221 s⁻¹; kon: 281000 M⁻¹ s⁻¹

Question: What does the source list for B6?
Answer: Kd: 0.49 nM; koff: 0.00014 s⁻¹; kon: 286000 M⁻¹ s⁻¹

Question: With B7 as the binder, how does the Kd read?
Answer: 8.11 nM

Question: And the koff?
Answer: 0.00271 s⁻¹

Question: And the kon?
Answer: 334000 M⁻¹ s⁻¹

Question: For B8, which Kd is on record?
Answer: 3.72 nM

Question: What about the koff of the same binder?
Answer: 0.000929 s⁻¹

Question: What about the kon of the same binder?
Answer: 250000 M⁻¹ s⁻¹

Question: What does the source list for B9?
Answer: Kd: 9.45 nM; koff: 0.00655 s⁻¹; kon: 693000 M⁻¹ s⁻¹

Question: With B10 as the binder, how does the Kd read?
Answer: 3.1 nM

Question: What about the koff of the same binder?
Answer: 0.00118 s⁻¹

Question: What about the kon of the same binder?
Answer: 380000 M⁻¹ s⁻¹

Question: Which Kd does the source give for B11 here?
Answer: 2.03 nM

Question: And the koff?
Answer: 0.00086 s⁻¹

Question: And the kon?
Answer: 425000 M⁻¹ s⁻¹

Question: What does the source list for B12?
Answer: Kd: 11.8 nM; koff: 0.00791 s⁻¹; kon: 673000 M⁻¹ s⁻¹

Question: Which results are given for B13?
Answer: Kd: 6.1 nM; koff: 0.00213 s⁻¹; kon: 348000 M⁻¹ s⁻¹

Question: How did the Kd turn out when B14 was run?
Answer: 1.84 nM

Question: And the koff?
Answer: 0.000638 s⁻¹

Question: What about the kon of the same binder?
Answer: 347000 M⁻¹ s⁻¹

Question: For B15, which kon is on record?
Answer: 271000 M⁻¹ s⁻¹

Question: How did the kon turn out when B16 was run?
Answer: 262000 M⁻¹ s⁻¹

Question: Which Kd does the source give for B17 here?
Answer: 1.7 nM

Question: And the koff?
Answer: 0.000612 s⁻¹

Question: What about the kon of the same binder?
Answer: 360000 M⁻¹ s⁻¹

Question: For B18, which Kd is on record?
Answer: 1.93 nM

Question: What about the koff of the same binder?
Answer: 0.000496 s⁻¹

Question: What about the kon of the same binder?
Answer: 256000 M⁻¹ s⁻¹

Biological target: canine FcRn/B2M protein complex (canine FcRn ECD with C-terminal poly-His tag and canine Beta-2-Microglobulin) (canine)
Assay: SPR Biacore T200, pH 6.0; biotinylated FcRn/B2M captured on streptavidin, antibody 18.75-1200 nM, steady state analysis

Question: For B19, which Kd is on record?
Answer: 410 nM

Biological target: canine FcRn/B2M protein complex (canine FcRn ECD with C-terminal poly-His tag and canine Beta-2-Microglobulin) (canine)
Assay: SPR Biacore T200, pH 6.0; biotinylated FcRn/B2M captured on streptavidin, antibody 12.5-800 nM, steady state analysis

Question: Which Kd does the source give for B20 here?
Answer: 231 nM

Biological target: canine FcRn/B2M protein complex (canine FcRn ECD with C-terminal poly-His tag and canine Beta-2-Microglobulin) (canine)
Assay: SPR Biacore T200 steady state, pH 6.0, 25 C; Fc on CM5 chip, FcRn/B2M 12.5-200 nM

Question: Which Kd does the source give for B21 here?
Answer: 406 nM

Question: With B2 as the binder, how does the Kd read?
Answer: 86.2 nM

Question: For B3, which Kd is on record?
Answer: 1250 nM

Question: For B22, which Kd is on record?
Answer: 113 nM

Question: How did the Kd turn out when B23 was run?
Answer: 367 nM

Biological target: canine FcRn/B2M protein complex (canine FcRn ECD with C-terminal poly-His tag and canine Beta-2-Microglobulin) (canine)
Assay: SPR Biacore T200, pH 6.0; biotinylated FcRn/B2M immobilized, Fc as analyte

Question: With B21 as the binder, how does the koff read?
Answer: 0.126 s⁻¹

Question: For B24, which koff is on record?
Answer: 0.241 s⁻¹

Question: With B3 as the binder, how does the koff read?
Answer: 0.122 s⁻¹

Question: B22 was tested. Which koff did it give?
Answer: 0.0138 s⁻¹

Question: For B23, which koff is on record?
Answer: 0.0631 s⁻¹ and 0.0847 s⁻¹

Biological target: canine FcRn/B2M protein complex (canine FcRn ECD with C-terminal poly-His tag and canine Beta-2-Microglobulin) (canine)
Assay: SPR Biacore 8K, pH 6.0, 25 C; Fc captured by SASA tag on BSA chip, FcRn/B2M 400 nM as analyte; dissociation exceeded the detection limit

Question: What does the source list for B15?
Answer: Kd: 0.000602 nM; koff: 1.63e-07 s⁻¹

Question: Which Kd does the source give for B16 here?
Answer: 0.000713 nM

Question: What about the koff of the same binder?
Answer: 1.87e-07 s⁻¹

Biological target: canine FcRn/B2M protein complex (canine FcRn ECD with C-terminal poly-His tag and canine Beta-2-Microglobulin) (canine)
Assay: SPR Biacore T200, pH 6.0; biotinylated FcRn/B2M captured on streptavidin, antibody 2.5-160 nM as analyte, kinetic fit

Question: What does the source list for B25?
Answer: Kd: 15.6 nM; koff: 0.00262 s⁻¹; kon: 168000 M⁻¹ s⁻¹

From patent publication US20210388053A1
